Results as given in patent publication US20160228506A1, “Compositions and Formulations for Prevention and Reduction of Tumorigenesis, Cancer Cell Proliferation and Invasion, and Methods of Production and Use Thereof in Cancer Treatment” (PRONUTRIA, INC., priority 2013, published 2016).

Assay: Intact half-life during simulated gastric fluid (SGF) digestion
Settings: SGF pH 1.5, pepsin:polypeptide 1:20 w/w, 37° C.; intact protein
Description: In this experiment the nutritive polypeptide was exposed to a series of proteases that are active in the stomach (pepsin) and intestine (trypsin and chymotrypsin), and the presence of intact protein was measured over time. Specifically, the nutritive polypeptide was first treated at a concentration of 2 g/L with simulated gastric fluid (SGF) (0.03 M NaCl, titrated with HCl to pH 1.5 with a final pepsin:polypeptide ratio of 1:20 w/w) at 37° C. Time points were sampled from the reaction and quenched by addition of 0.2 M Na2CO3. […] Time points were sampled from the reaction and quenched by addition of Trypsin/Chymotrypsin Inhibitor (Sigma) solution until 240 min.
Time point samples were analyzed for intact protein by chip electrophoresis, polyacrylamide gel electrophoresis, or western blot. For chip electrophoresis (Labchip GX II), samples were analyzed using a HT Low MW Protein Express LabChip® Kit (following the manufacturer's protocol). A protein ladder was loaded every 12 samples for molecular weight determination (kDa) and quantification. For polyacrylamide gel electrophoresis, samples (1 μg) were separated on a NuPAGE® Novex® Bis-Tris Precast gel (Life Technologies) according to the manufacturer's protocol. The gel was stained using SimplyBlue™ SafeStain (Invitrogen) and imaged using a Chemidoc XRS+ (BioRad) or transferred onto nitrocellulose membranes using the iBlot® Dry Blotting System (Life Technologies) and iBlot® Western Detection Kit (Life Technologies) according to the manufacturer's protocol. Proteins were detected by blotting with Anti-His [C-term]-HRP antibody diluted 3:5000 in Blok™-PO Blocking Buffer using the SNAP I.d.® Protein Detection System (Millipore) according to the manufacturer's protocol. Blots were treated with Luminata Classico Western HRP Substrate (Millipore) according to the manufacturer's protocol and imaged using chemiluminescent detection on the Molecular Imager® Gel Doc™ XR+ System (Bio-Rad). Quantification of intact protein was determined by densitometry using ImageLab (BioRad). For all analysis methods the relative concentration of the polypeptide at each time point (if detected) was plotted overtime and fit to an exponential curve to calculate the intact half-life.
Specifically, the t=0 (enzyme-free control) and t=2 min samples from the SGF digest were analyzed for intact protein as described by chip electrophoresis, SDS-PAGE, western blot, and/or LC-MS/MS. Relative quantities of polypeptides at each time point were determined and the percentage of intact protein remaining at t=2 was determined. Intact half-life values determined using this method are reported as greater or less than 2 min to indicate more or less than 50% of the protein remained intact at t=2 min, respectively.

Molecule	SGF Half-life (t½) [s]
SEQID-00357: nutritive polypeptide (protein, Arthrospira platensis NIES-39) MKPLNRRTKIVATIGPASNSREVLYQMIQAGMNVVRLNFSHGSHEQHTKTVALLKEISQELKTSITLLQDLQGPKIRVGQLPDGGIQLMAGEYITLVPIDQYESKPNTIAIDYLHLGEEAEIGAQVLLDDGLLELKVEEISGNQVKCKIIEGGTLKSRKGVNLPSLTLRLPSLTEKDQQDLEFGISLGVDWVSLSFVRNAEDVRVLKDFLASKNASQISVMAKIEKPQAIANLEEIISECNGLMVARGDLGVEMSPERVPLLQKQIIRLCNQKGIPVITATQMLDSMINNPRPTRAEASDVANAIIDGTDAVMLSGESAVGKYPIRAVEMLAKIAEDVEPEINFINYPPAFNDETHAISEAINTIDKIIDLHCIIAYTCSGYTGQLAAAERPKAPVVALTPNPKVYHRLNLVWGVKPLLLEQEVESFEELINQAQTYLLVRQMASPGDKILIIGGIPSGKAKGTNFIKIHTIG	12
SEQID-00359: nutritive polypeptide naturally produced in Sheep, recombinantly expressed in E. coli (protein, Arthrospira platensis NIES-39) MLELGSQRNRAKNNHIGDLMSQSFESLGISEQRARHLETLGFTEPTPVQIQAIPEMLSGRDVVGMAQTGTGKTAAFSLPILEQIDVHAAGIQALVLTPTRELAMQVKEAIRTFSDDNALYVLTVYGGQSIDRQIQRLRRGVQVVVGTPGRILDLLNRGELKLDLLRWLVLDEADEMLSMGFIQDVEKILESADSEHRQTAFFSATMDASISKLVRRHLKSPVTVKVETPKATPKRIEQSVYMVPRGWSKARALEPILELEDPESAIIFVRTKQSAADLTNQLQAAGHSVDEYHGNLNQSQRERLLMRLRRRQVRWIVATDIAARGLDVDHLTHVINYDLPDQVDSYVHRIGRTGRAGREGKAITLIQPIDRRKLRNIERHLRQTLSIQSIPKRAEIEARYIDRLKDRVRDALAGERMASFLPIVSQLSEEYDPHAIAAAALQLAYDQTRPASIGRDDYEDDDDAVSNKPKLIKRRRPASVSNNS	12
SEQID-00001 (HEK293): nutritive polypeptide (protein, listed as Gallus gallus, expressed in HEK293) MGSIGAASMEFCFDVFKELKVHHANENIFYCPIAIMSALAMVYLGAKDSTRTQINKVVRFDKLPGFGDSIEAQCGTSVNVHSSLRDILNQITKPNDVYSFSLASRLYAEERYPILPEYLQCVKELYRGGLEPINFQTAADQARELINSWVESQTNGIIRNVLQPSSVDSQTAMVLVNAIVFKGLWEKAFKDEDTQAMPFRVTEQESKPVQMMYQIGLFRVASMASEKMKILELPFASGTMSMLVLLPDEVSGLEQLESIINFEKLTEWTSSNVMEERKIKVYLPRMKMEEKYNLTSVLMAMGITDVFSSSANLSGISSAESLKISQAVHAAHAEINEAGREVVGSAEAGVDAASVSEEFRADHPFLFCIKHIATNAVLFFGRCVSP	516
SEQID-00345: nutritive polypeptide (protein, Arthrospira platensis NIES-39) MNTLDLQNQRILVTGGAGFLGKQVIDQLLKAGAKSENISVPRSHNCDLRNLEACQQAAKGQDIIIHLAAHVGGIGLNQVKPAELFYDNLMMGTQLIHSAYQAGVKKFVCVGTICAYPKFTPVPFQEDDLWNGYPEETNAPYGIAKKALLVQLQAYRQQYGFNGIYLLPVNLYGPEDNFNPKSSHVIPALVRKVYEAQQRGDKQLPVWGDGSPSREFLYSTDAARGIVMATQHYDEPDPVNLGTNSEVTIRDLVELICELMEFQGEIVWETDKPNGQPRRCLDTNRAKERFGFVAEVEFRQGLKNTIDWYRQNPDL	48
SEQID-00343: nutritive polypeptide (protein, Glycine max) MATLIAPSHHSRVEDAEALRNAFKGWGADDKAIIAILGHRNVHQRQEIRKAYEEIYQEDLIKRLESEISGDFERAMYRWMLQPADRDAVLVNVAIKNGTKDYHVIAEIACVLSAEELLAVRRAYHRRYKCSLEEDVAANTTGNLRQLLVGLVTSYRYEGDEINVKFSQTEANVLHESVKEKKGNSEEVIRILTTRSKTQLVATFNRYRDEHGISISKKLLDQTSDDFHKVLHTAIRCINDHKKYYEKVLRNAVKKFGTDEDGLSRVIVTRAEKDLKDIKELYYKRNSVHLEDEVSKETSGDYKKFLLTLLGK	18
SEQID-00356: nutritive polypeptide (protein, Glycine max) MATAAEKLSALKSAVAGLNEISENEKNGFISLVGRYLSGEAQHVEWSKIQTPTDEVVVPYDTLAPTPEGSSEVKNLLDKLVVLKLNGGLGTTMGCTGPKSVIEVRDGLTFLDLIVIQIENLNSKYGSNVPLLLMNSFNTHDDTQKIVEKYQNSNIEIHTFNQSQYPRLVVEDFLPLPSKGHTDKDGWYPPGHGDVFPSLLNSGKLDALLSQGKEYVFVANSDNLGAIVDLKILNHLIQNKNEYCMEVTPKTLADVKGGTLISYEGRVQLLEIAQVPDEHVNEFKSIEKFKIFNTNNLWVNLNAVKRLVEADALKMEIIPNPKEVDGIKVLQLETAAGAAIRFFDKAIGINVPRSRFLPVKATSDLLLVQSDLYTLEDGFVIRNKARENPENPSIELGPEFKKVSNFLGRFKSIPSIVELDSLKVAGDVWFGAGVILKGKVSIVSKPGVKLEVPDGVAIVDKEINGPEDL	12
SEQID-00346: nutritive polypeptide (protein, Arthrospira platensis NIES-39) MYYDADANLDLLAGKTIAIVGYGSQGHAHALNLKDSGMNVIVGLYPGSKSATKAKDAGLTVYPVDEAAKIADLIMILLPDEVQKTVYKNEIEPNLSEGKTLAFAHGFNIHFGQVVPPENVDVIMVAPKGPGHLVRRTYQEGQGVPCLFAVYQDASGQARDRAMAYAKGIGGTRGGILETTFREETETDLFGEQAVLCGGLSALIKAGFETLVEAGYQPELAYFECLHEVKLIVDLVVEGGLAQMRDSISNTAEYGDYTRGPRVITDATRAEMRKILKEIQTGQFAREFVLENQSGKAGFTAMRRQEAEHPIEEVGHDLRAMFSWLKKKA	12
SEQID-00354: nutritive polypeptide (protein, Ovis aries) MSLSNKLTLDKLDVKGKRVVMRVDFNVPMKNNQITNNQRIKAAVPSIKYCLDSGAKSVVLMSHLGRPDGVPMPDKYSLQPVAVELKSLLGKDVLFLKDCVGPEVEKACADPAAGSVILLENLRFHVEEEGKGKDASGNKVKAEPTKIEAFRASLSKLGDVYVNDAFGTAHRAHSSMVGVNLPKKAGGFLMKKELNYFAKALESPERPFLAILGGAKVADKIQLISNMLDKVNEMIIGGGMAFTFLKVLNNMEIGTSLFDEEGSKIVKDLMSKADKNGVKITLPVDFVTADKFDENAKTGQATVASGIPVGWMGLDCGPESSKKYAEAVARAKQIVWNGPVGVFEWEAFARGTKALMDEVVKATSRGCITIIGGGDTATCCAKWNTEDKVSHVSTGGGASLELLEGKVLPGVDALSSV	12
